What follows are sequences tested on Escherichia coli TOP10 (assay: shrunken log2 fold change of peptide-encoding DNA abundance (4.5 h post-induction vs induction); higher = less antimicrobial activity (less host growth inhibition)). Conditions: time post-induction: 4.5 h; library: site-saturation at positions 5, 18, 19, 20.
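Note: peptides expressed intracellularly from a pBAD plasmid library in pooled LB shake-flask culture, induced with 0.3% L-arabinose, DNA abundance read by NGS, three biological replicates, DESeq2 with apeglm shrinkage.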

Sequence | shrunken log2 fold change
RRIRRRPPRLPRPRPRPTDMPRP | -0.0645
RRIRVRPPRLPRPRPRPQAEPRP | 0.352
RRIRFRPPRLPRPRPRPICRPRP | -0.0837
RRIRERPPRLPRPRPRPSFVPRP | -0.588
RRIRLRPPRLPRPRPRPTQKPRP | 0.194
RRIRMRPPRLPRPRPRPGAIPRP | 1.4
RRIRHRPPRLPRPRPRPLFTPRP | -0.699
RRIRHRPPRLPRPRPRPMMSPRP | 0.0372
RRIRIRPPRLPRPRPRPVVHPRP | -0.000671
RRIRSRPPRLPRPRPRPWFVPRP | -0.36
RRIRGRPPRLPRPRPRPACNPRP | 0.415
RRIRYRPPRLPRPRPRPWWVPRP | -0.0131
RRIRQRPPRLPRPRPRPYWHPRP | -0.317
RRIRRRPPRLPRPRPRPIIYPRP | -0.0798
RRIRARPPRLPRPRPRPDMVPRP | 0.308
RRIRQRPPRLPRPRPRPWNIPRP | -0.0185
RRIRSRPPRLPRPRPRPITDPRP | -0.0789
RRIRSRPPRLPRPRPRPHFNPRP | -0.419
RRIRCRPPRLPRPRPRPHFPPRP | -0.0893
RRIRMRPPRLPRPRPRPLTDPRP | 1.69
RRIRWRPPRLPRPRPRPAAQPRP | -0.0638
RRIRTRPPRLPRPRPRPHQTPRP | -0.0425
RRIRDRPPRLPRPRPRPLGMPRP | 0.111
RRIRKRPPRLPRPRPRPAMYPRP | 0.256
RRIRYRPPRLPRPRPRPQVLPRP | -0.725

Sequence | shrunken log2 fold change
RRIRCRPPRLPRPRPRPTHVPRP | 0.437
RRIRMRPPRLPRPRPRPIYRPRP | -0.0679
RRIRHRPPRLPRPRPRPGLDPRP | 0.269
RRIRGRPPRLPRPRPRPAHWPRP | 0.378
RRIRYRPPRLPRPRPRPHNFPRP | -0.118
RRIRQRPPRLPRPRPRPEFSPRP | 0.362
RRIRFRPPRLPRPRPRPGYNPRP | -0.332
RRIRQRPPRLPRPRPRPEDTPRP | -0.0122
RRIRLRPPRLPRPRPRPGGPPRP | 1.36
RRIRLRPPRLPRPRPRPTIEPRP | 0.033
RRIRIRPPRLPRPRPRPWHFPRP | -0.0737
RRIRARPPRLPRPRPRPFVFPRP | 0.166
RRIRWRPPRLPRPRPRPRLTPRP | 0.307
RRIRRRPPRLPRPRPRPCGCPRP | 0.0953
RRIRTRPPRLPRPRPRPWGAPRP | 0.211
RRIRSRPPRLPRPRPRPYTGPRP | -0.125
RRIRGRPPRLPRPRPRPHSMPRP | 0.0488
RRIRERPPRLPRPRPRPIVYPRP | 0.0176
RRIRARPPRLPRPRPRPQMEPRP | -0.154
RRIRRRPPRLPRPRPRPIHRPRP | -0.041
RRIRHRPPRLPRPRPRPHDWPRP | 0.0241
RRIRIRPPRLPRPRPRPPMCPRP | -0.0556
RRIRLRPPRLPRPRPRPAIAPRP | 0.118
RRIRIRPPRLPRPRPRPANLPRP | -0.584
RRIRNRPPRLPRPRPRPDLHPRP | 1.8

Sequence | shrunken log2 fold change
RRIRLRPPRLPRPRPRPCHFPRP | -0.285
RRIRLRPPRLPRPRPRPVLWPRP | 0.389
RRIRCRPPRLPRPRPRPVCIPRP | -0.499
RRIRYRPPRLPRPRPRPHWPPRP | -0.322
RRIRPRPPRLPRPRPRPDWTPRP | -0.063
RRIRVRPPRLPRPRPRPLFMPRP | -0.663
RRIRIRPPRLPRPRPRPDQLPRP | -0.172
RRIRRRPPRLPRPRPRPCPTPRP | 0.288
RRIRLRPPRLPRPRPRPDVIPRP | -0.161
RRIRERPPRLPRPRPRPECQPRP | -0.0134
RRIRGRPPRLPRPRPRPKELPRP | 0.247
RRIRHRPPRLPRPRPRPHAIPRP | -0.251
RRIRCRPPRLPRPRPRPEARPRP | 0.193
RRIRKRPPRLPRPRPRPKMCPRP | -0.0224
RRIRCRPPRLPRPRPRPATCPRP | -0.0745
RRIRKRPPRLPRPRPRPWNKPRP | -0.129
RRIRVRPPRLPRPRPRPQDIPRP | -0.328
RRIRSRPPRLPRPRPRPVQGPRP | 0.108
RRIRLRPPRLPRPRPRPPNFPRP | 0.0275
RRIRYRPPRLPRPRPRPMTHPRP | -0.348
RRIRARPPRLPRPRPRPVVAPRP | 0.604
RRIRMRPPRLPRPRPRPLFAPRP | 0.556
RRIRDRPPRLPRPRPRPHFRPRP | -0.121
RRIRARPPRLPRPRPRPFKSPRP | -0.549
RRIRRRPPRLPRPRPRPDSKPRP | -0.0649

Sequence | shrunken log2 fold change
RRIRERPPRLPRPRPRPWYHPRP | -0.588
RRIRWRPPRLPRPRPRPIQFPRP | -0.0539
RRIRFRPPRLPRPRPRPSLFPRP | -0.291
RRIRDRPPRLPRPRPRPERQPRP | -0.00783
RRIRERPPRLPRPRPRPSDHPRP | -0.133
RRIRTRPPRLPRPRPRPWVYPRP | -0.294
RRIRHRPPRLPRPRPRPKGTPRP | -0.0951
RRIRMRPPRLPRPRPRPWVHPRP | 0.031
RRIRNRPPRLPRPRPRPIQIPRP | -0.363
RRIRIRPPRLPRPRPRPHWSPRP | -0.187
RRIRIRPPRLPRPRPRPKCHPRP | -0.199
RRIRNRPPRLPRPRPRPARCPRP | 0.319
RRIRFRPPRLPRPRPRPHKHPRP | -0.579
RRIRHRPPRLPRPRPRPYREPRP | 0.0421
RRIRCRPPRLPRPRPRPNNRPRP | -0.738
RRIRIRPPRLPRPRPRPSFNPRP | -0.838
RRIRKRPPRLPRPRPRPDDYPRP | 0.276
RRIRMRPPRLPRPRPRPHRCPRP | 0.15
RRIRIRPPRLPRPRPRPAMAPRP | -0.237
RRIRSRPPRLPRPRPRPNACPRP | 0.0406
RRIRPRPPRLPRPRPRPMWIPRP | -0.237
RRIRCRPPRLPRPRPRPTQSPRP | 0.565
RRIRRRPPRLPRPRPRPEYNPRP | -0.103
RRIRWRPPRLPRPRPRPIFKPRP | 0.0632
RRIRGRPPRLPRPRPRPCIYPRP | 0.0369

Sequence | shrunken log2 fold change
RRIRFRPPRLPRPRPRPPFVPRP | -0.0145
RRIRMRPPRLPRPRPRPGIFPRP | 0.00597
RRIRPRPPRLPRPRPRPNTAPRP | -0.23
RRIRLRPPRLPRPRPRPKFAPRP | 0.293
RRIRFRPPRLPRPRPRPGSLPRP | -0.479
RRIRRRPPRLPRPRPRPNEMPRP | 0.245
RRIRARPPRLPRPRPRPISGPRP | -0.00122
RRIRVRPPRLPRPRPRPMSHPRP | 0.171
RRIRLRPPRLPRPRPRPTDTPRP | -0.304
RRIRERPPRLPRPRPRPTMIPRP | -0.597
RRIRFRPPRLPRPRPRPYVRPRP | -0.0985
RRIRIRPPRLPRPRPRPPIFPRP | -0.0827
RRIRLRPPRLPRPRPRPQPAPRP | 0.294
RRIRSRPPRLPRPRPRPCFKPRP | -0.173
RRIRKRPPRLPRPRPRPVMTPRP | 0.0351
RRIRSRPPRLPRPRPRPCLCPRP | -1.28
RRIRLRPPRLPRPRPRPHMPPRP | -0.222
RRIRLRPPRLPRPRPRPRMAPRP | 0.39
RRIRGRPPRLPRPRPRPIILPRP | 0.197
RRIRWRPPRLPRPRPRPNNMPRP | -0.345
RRIRNRPPRLPRPRPRPKLWPRP | -0.0235
RRIRKRPPRLPRPRPRPHVLPRP | 0.0607
RRIRKRPPRLPRPRPRPTQRPRP | 1.13
RRIRMRPPRLPRPRPRPGLYPRP | -0.196
RRIRMRPPRLPRPRPRPLIHPRP | -0.207

Sequence | shrunken log2 fold change
RRIRYRPPRLPRPRPRPDLMPRP | -0.107
RRIRWRPPRLPRPRPRPGSQPRP | 0.584
RRIRFRPPRLPRPRPRPRENPRP | 0.449
RRIRTRPPRLPRPRPRPFDTPRP | -0.346
RRIRVRPPRLPRPRPRPHMYPRP | -0.509
RRIRPRPPRLPRPRPRPRCMPRP | 0.0856
RRIRCRPPRLPRPRPRPKDTPRP | 0.382
RRIRMRPPRLPRPRPRPGIDPRP | 0.403
RRIRYRPPRLPRPRPRPKIEPRP | -0.00459
RRIRYRPPRLPRPRPRPWVSPRP | -0.013
RRIRNRPPRLPRPRPRPWDWPRP | 0.0265
RRIRCRPPRLPRPRPRPPEAPRP | 0.968
RRIRGRPPRLPRPRPRPMWMPRP | 0.118
RRIRDRPPRLPRPRPRPWSCPRP | -0.188
RRIRPRPPRLPRPRPRPSIYPRP | -0.584
RRIRYRPPRLPRPRPRPVFLPRP | -0.538
RRIRRRPPRLPRPRPRPSTAPRP | 0.297
RRIRHRPPRLPRPRPRPQPYPRP | -1.53
RRIRERPPRLPRPRPRPTCCPRP | -0.0839
RRIRMRPPRLPRPRPRPGMYPRP | 0.124
RRIRRRPPRLPRPRPRPGNAPRP | 0.304
RRIRKRPPRLPRPRPRPGKRPRP | 0.285
RRIRARPPRLPRPRPRPWFLPRP | -0.399
RRIRCRPPRLPRPRPRPGKHPRP | -0.423
RRIRRRPPRLPRPRPRPMFLPRP | 0.0789

From the supplement of paper PMC9112550, “Optimization of the antimicrobial peptide Bac7 by deep mutational scanning” (BMC Biology, 2022)
